From patent US8889621B2, “Inhibiting binding of FGF23 to the binary FGFR-Klotho complex for the treatment of hypophosphatemia” (New York University, priority 2009, dated 2014)
Peptide text beside a SMILES is read from it.

Target: T1, binary FGFR1c-Klotho complex (UniProt O35082+P11362)
T1 construct: The ectodomain of murine Klotho (A35 to K982) was purified from culture media; FLAG (C); made in house; host or cells: E. coli (FGFR1c, FGF23); HEK293 (Klotho ectodomain)
T1 sequence (P11362 142-365): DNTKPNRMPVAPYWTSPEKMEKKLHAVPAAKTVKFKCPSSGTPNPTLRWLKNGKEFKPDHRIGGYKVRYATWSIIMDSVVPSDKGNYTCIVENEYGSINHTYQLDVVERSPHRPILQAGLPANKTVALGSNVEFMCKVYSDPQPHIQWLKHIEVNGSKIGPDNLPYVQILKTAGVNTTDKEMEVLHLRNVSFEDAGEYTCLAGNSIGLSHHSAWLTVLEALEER
T1 sequence (O35082 35-982): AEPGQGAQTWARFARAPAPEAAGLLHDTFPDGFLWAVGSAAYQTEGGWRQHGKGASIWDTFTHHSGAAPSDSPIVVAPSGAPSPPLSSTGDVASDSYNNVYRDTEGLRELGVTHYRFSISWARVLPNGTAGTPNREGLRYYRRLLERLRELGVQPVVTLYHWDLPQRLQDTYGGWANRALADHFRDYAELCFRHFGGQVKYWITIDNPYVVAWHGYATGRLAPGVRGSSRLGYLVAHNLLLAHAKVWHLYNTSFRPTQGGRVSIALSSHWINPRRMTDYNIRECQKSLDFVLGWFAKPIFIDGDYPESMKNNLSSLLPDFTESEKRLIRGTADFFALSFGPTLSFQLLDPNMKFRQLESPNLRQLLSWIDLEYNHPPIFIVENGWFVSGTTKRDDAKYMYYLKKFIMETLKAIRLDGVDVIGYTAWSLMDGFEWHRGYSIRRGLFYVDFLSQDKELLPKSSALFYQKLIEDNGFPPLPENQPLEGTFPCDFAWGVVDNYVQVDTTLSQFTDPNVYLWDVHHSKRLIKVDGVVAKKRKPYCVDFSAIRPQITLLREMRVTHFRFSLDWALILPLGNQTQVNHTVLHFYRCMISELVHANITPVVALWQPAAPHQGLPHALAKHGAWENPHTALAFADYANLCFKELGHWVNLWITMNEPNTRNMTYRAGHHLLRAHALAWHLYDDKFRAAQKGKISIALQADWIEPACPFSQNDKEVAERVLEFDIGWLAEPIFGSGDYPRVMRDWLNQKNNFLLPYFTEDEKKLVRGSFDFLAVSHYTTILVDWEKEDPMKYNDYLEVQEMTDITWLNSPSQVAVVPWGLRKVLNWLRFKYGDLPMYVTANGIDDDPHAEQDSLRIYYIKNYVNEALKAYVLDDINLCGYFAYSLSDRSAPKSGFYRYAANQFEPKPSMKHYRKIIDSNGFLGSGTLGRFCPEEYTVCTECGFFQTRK
Assay: SPR competition: FGFR1c-Klotho binding to immobilized FGF23^28-251
Set-up: species or system human FGFR1c, murine Klotho
Conditions: for inhibition of FGFR1c-Klotho binding to immobilized FGF23^28-251: FGF21^168-209 at molar ratios of 6:1 and 10:1; for rightward shift of dose-response curve compared to full-length FGF23: FIG. 3D
Procedure: A variety of interaction or binding assays can be used to determine that an agent specifically binds the binary FGFR-Klotho complex, such as the SPR interaction analysis described below. One aspect of the present invention utilizes SPR analysis of FGF23 protein/peptide binding to the binary FGFR-Klotho complex. The SPR analysis involved FGF23 protein/peptide immobilization by amine coupling on flow channels of a chip. Proteins were injected over the chip at a flow rate of 50 μl min^−1, and at the end of each protein injection (180 s), HBS-EP buffer (10 mM HEPES-NaOH, pH 7.4, 150 mM NaCl, 3 mM EDTA, 0.005% (v/v) polysorbate 20; 50 μl min^−1) was flowed over the chip to monitor dissociation for 180 s. The chip surface was then regenerated by injecting 50 μl of 2.0 M NaCl in 10 mM sodium acetate, pH 4.5. […] For each protein injection over a FGF23 protein/peptide chip, the nonspecific responses from the FHF1B control flow channel were subtracted from the responses recorded for the flow channel onto which FGF23 protein/peptide was immobilized. To analyze FGF23 binding to the binary FGFR1c-Klotho complex, FGF23^28-251 was coupled to a chip, and increasing concentrations of 1:1 complex of the ectodomains of FGFR1c and Klotho in HBS-EP buffer were passed over the chip. To measure binding of the C-terminal tail of FGF23 to the binary FGFR1c-Klotho complex, FGF23^180-251 was immobilized on a chip, and increasing concentrations of 1:1 complex of the ectodomains of FGFR1c and Klotho in HBS-EP buffer were passed over the chip. To examine whether the C-terminal tail of FGF23 can compete with full-length FGF23 for binding to the binary FGFR1c-Klotho complex, FGF23^28-251 was immobilized on a chip. Increasing concentrations of FGF23^180-251 were mixed with a fixed concentration of 1:1 complex of the ectodomains of FGFR1c and Klotho in HBS-EP buffer, and the mixtures were passed over the chip. As a control, competition of FGF23 in solution with immobilized FGF23 for binding to the binary FGFR1c-Klotho complex was studied. Increasing concentrations of FGF23^28-251 were mixed with a fixed concentration of 1:1 complex of the ectodomains of FGFR1c and Klotho in HBS-EP buffer, and the mixtures were passed over the FGF23 chip. Competition of the FGF23 C-terminal tail peptide with full-length FGF23 for binding to the binary FGFR1c-Klotho complex was also studied using the “reverse” SPR assay format, where FGF23^180-251 was immobilized on a chip and mixtures of a fixed concentration of 1:1 complex of the ectodomains of FGFR1c and Klotho with increasing concentrations of FGF23^28-251 were passed over the chip. As a control, competition of FGF23 C-terminal tail peptide in solution with immobilized FGF23 C-terminal tail peptide for binding to the binary FGFR1c-Klotho complex was analyzed. Increasing concentrations of FGF23^180-251 were mixed with a fixed concentration of 1:1 complex of the ectodomains of FGFR1c and Klotho in HBS-EP buffer, and the mixtures were passed over the FGF23^180-251 chip. To verify the specificity of the interaction between the FGF23 C-terminal tail and the FGFR1c-Klotho complex, FGF23^28-251 was immobilized on a chip. Increasing concentrations of FGF21^168-209 were mixed with a fixed concentration of 1:1 complex of the ectodomains of FGFR1c and Klotho in HBS-EP buffer, and the mixtures were passed over the chip. In addition, the ability of the FGF23 C-terminal tail peptide to interfere with binary complex formation between βKlotho and either FGF19 or FGF21 was tested, as was its ability to interfere with ternary complex formation between βKlotho, FGFR, and either FGF19 or FGF21. FGF19^23-216 and FGF21^29-209 were immobilized on two flow channels of a chip. FGF23^180-251 and the ectodomain of βKlotho were mixed at a molar ratio of 2:1, and the mixture was injected over the chip. Next, FGF23^180-251 and the 1:1 complex of the ectodomains of FGFR1c and βKlotho were mixed at a molar ratio of 10:1, and the mixture was passed over the FGF19/FGF21 chip. […]

CSCC[C@H](NC(=O)[C@H](CCCNC(=N)N)NC(=O)[C@H](C)NC(=O)[C@H](CCCNC(=N)N)NC(=O)[C@@H]1CCCN1C(=O)[C@H](CCCCN)NC(=O)[C@H](CC(C)C)NC(=O)[C@@H](NC(=O)[C@H](CC(N)=O)NC(=O)[C@H](CC(C)C)NC(=O)[C@@H]1CCCN1C(=O)[C@H](CC(=O)O)NC(=O)[C@H](CCCNC(=N)N)NC(=O)[C@H](CCC(=O)O)NC(=O)[C@H](CO)NC(=O)[C@H](CC(=O)O)NC(=O)[C@H](CC(=O)O)NC(=O)[C@H](CCC(=O)O)NC(=O)[C@H](C)NC(=O)[C@@H](N)CO)C(C)C)C(=O)N[C@H](C(=O)N1CCC[C@H]1C(=O)N[C@@H](C)C(=O)N1CCC[C@H]1C(=O)N[C@@H](C)C(=O)N[C@@H](CO)C(=O)O)[C@@H](C)O [FGF23^180-205] (H-SAEDDSERDPLNVLKPRARMTPAPAS-OH; N-terminus and C-terminus assumed)
inhibition of FGFR1c-Klotho binding to immobilized FGF23^28-251: able to compete, in a dose-dependent fashion
molar excess over FGFR1c-Klotho complex at half-maximum inhibition of FGFR1c-Klotho binding to FGF23^28-251 (FGF23^28-251 chip): 5.7 fold molar excess
rightward shift of dose-response curve compared to full-length FGF23: ~6 fold

B1: FGF23^28-251: human FGF23 (A28 to I251), bioactive full-length ligand expressed in E. coli (protein, listed as Homo sapiens)
chain: ASPLLGSSWGGLIHLYTATARNSYHLQIHKNGHVDGAPHQTIYSALMIRSEDAGFVVITGVMSRRYLCMDFRGNIFGSHYFDPENCRFQHQTLENGYDVYHSPQYHFLVSLGRAKRAFLPGMNPPPYSQFLSRRNEIPLIHFNTPIPRRHTRSAEDDSERDPLNVLKPRARMTPAPASCSQELPSAEDNSPMASDPLGVVRGGRVNTHAGGTGPEGCRPFAKFI
amount relative to FGFR1c-Klotho complex yielding 50% inhibition of binding to immobilized FGF23^28-251 (FGF23^28-251 chip, control): less than an equimolar amount

B2: FGF23^180-251: 72-amino acid C-terminal tail of human FGF23 (S180 to I251), expressed in E. coli (protein, listed as Homo sapiens)
chain: SAEDDSERDPLNVLKPRARMTPAPASCSQELPSAEDNSPMASDPLGVVRGGRVNTHAGGTGPEGCRPFAKFI
inhibition of FGFR1c-Klotho binding to immobilized FGF23^28-251: competed, in a dose-dependent fashion
molar excess over FGFR1c-Klotho complex at half-maximum inhibition of FGFR1c-Klotho binding to FGF23^28-251 (FGF23^28-251 chip): 3.3 fold molar excess
rightward shift of dose-response curve compared to full-length FGF23: about 3 fold
